In PMC8126939, “The TBC1D31/praja2 complex controls primary ciliogenesis through PKA‐directed OFD1 ubiquitylation” (The EMBO Journal, 2021):

B1: peptide of the C-terminus segment of TBC1D31 [human] / GST-praja2_(530–570) [modified: fluorescent dye on primary amines (NHS-ester labelling); fluorescent dye on primary amines (NHS-ester labelling)] [human] (parent complex)
chain 1: WDTTGQNLIKKVRNLRQRLTARARHRCQTPHLLAA
chain 2: LDGNNNLEDDSSVSEDLDVDWSLFDGFADGLGVAEAISYVD

Variants of: B1
Assay: microscale thermophoresis (MST); parent: 3.7e+04 nM

| Kd | Variant |
| --- | --- |
| ~65 µM | chain 1 WDTTGQNLIKKVANLAQRLTARARHRCQTPHLLAA [chain 1 R13A, chain 1 R16A] |
